The target of the test is T1, Flag-tagged human Fis1 (WT) (human), Q9Y3D6.
T1 chain: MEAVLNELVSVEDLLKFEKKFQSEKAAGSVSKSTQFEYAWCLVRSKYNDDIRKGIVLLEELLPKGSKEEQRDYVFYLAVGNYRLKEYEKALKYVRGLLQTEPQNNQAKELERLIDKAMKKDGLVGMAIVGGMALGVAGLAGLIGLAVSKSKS
Kind of test: SDS-resistant oligomers on SDS-PAGE immunoblot of the immunoprecipitate; anti-myc immunoprecipitate of the Mid51/Fis1 complex from HeLa lysate heated 20 min at 55°C, 4-20% Tris-Glycine SDS-PAGE; SDS-resistant complexes detected with anti-myc (Mid51 species) or anti-Flag (Fis1 species); species normalized to monomer. Particulars: remark: other sources report otherwise.

B1: Flag-tagged human Fis1 (WT), Q9Y3D6 1-152 (natural protein)
chain: MEAVLNELVSVEDLLKFEKKFQSEKAAGSVSKSTQFEYAWCLVRSKYNDDIRKGIVLLEELLPKGSKEEQRDYVFYLAVGNYRLKEYEKALKYVRGLLQTEPQNNQAKELERLIDKAMKKDGLVGMAIVGGMALGVAGLAGLIGLAVSKSKS
By stoichiometry N is commonly meant the number of molecules, sites or subunits per partner or assembly. B1: the stoichiometry N came to 4.

The values above are taken from article PMC9437119.
